± gives the standard deviation of the averaged measurements.
System: ATP
Test: switch fluorescence ratio, 500 uM ATP over buffer (Cy3 cluster intensity, sum of 5 cycles each) (fold (ratio)); higher = stronger signal-on switching upon ATP binding; sequences stand for … in TCGTCGGCAGCGTCAGATGTGTATAAGAGACAGTTTTTTTTTTTTTTTTTTTTTTTTT…TC
Conditions: aptamer strand: ATP DNA aptamer (quencher-CACCTGGGGGAGTATTGCGGAGGAAGG + anchor), 100 nM annealed; ATP concentration: 500 uM
Method in brief: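 Per cluster, summed Cy3 intensity from the target cycles was divided by that from the buffer cycles to give the fluorescence ratio, then averaged per switch-domain sequence. Clusters outside 100-1000 RFU were excluded. The Cy3-labelled switching-strand clusters, on a modified Illumina MiSeq flow-cell, were annealed to 100 nM quencher-labelled ATP aptamer and imaged in selection buffer, then after 15 min with 500 uM ATP at 22 °C, for five cycles with NaOH stripping and re-annealing between them.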
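Note: ATP exposure 15 min at 22 °C before imaging.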

For AGATAGAGCG, the switch fluorescence ratio was 1.01 ± 0.024.
For AGATAGGGAG, the switch fluorescence ratio was 0.9786 ± 0.0031.
With AGATAGTATT the switch fluorescence ratio was 0.986 ± 0.02.
For AGATATACGG, the switch fluorescence ratio was 1.02 ± 0.034.
With AGATATTTAT the switch fluorescence ratio was 0.987 ± 0.014.
Sequence AGATCCTCTA has a switch fluorescence ratio of 1 ± 0.011.
With AGATCGAGTT the switch fluorescence ratio was 0.99 ± 0.041.
With AGATCTGGGG the switch fluorescence ratio was 1.04 ± 0.036.
AGATCTTCTT showed a switch fluorescence ratio of 0.987 ± 0.015.
Sequence AGATGATAGG has a switch fluorescence ratio of 1.0282 ± 0.00044.
AGATGGAGGC gave a switch fluorescence ratio of 1.0705 ± 0.00017.
Work on AGATGGCTAG yielded a switch fluorescence ratio of 0.999 ± 0.018.
With AGATGGGGCA the switch fluorescence ratio was 0.9774 ± 0.0024.
Sequence AGATGGGGG has a switch fluorescence ratio of 0.948 ± 0.066.
AGATGGTTTC was tested, and the switch fluorescence ratio was 0.993 ± 0.042.
With AGATGTATTT the switch fluorescence ratio was 0.997 ± 0.032.
With AGATGTGAGC the switch fluorescence ratio was 1.03 ± 0.059.
Work on AGATGTGTAG yielded a switch fluorescence ratio of 1.04 ± 0.012.
Sequence AGATGTTGTT has a switch fluorescence ratio of 1.01 ± 0.023.
AGATGTTTCC showed a switch fluorescence ratio of 1.04 ± 0.055.
AGATTAAAGA gave a switch fluorescence ratio of 1.006 ± 0.009.
AGATTACCTG was tested, and the switch fluorescence ratio was 1.02 ± 0.027.
Sequence AGATTACCTT has a switch fluorescence ratio of 1.06 ± 0.017.
Work on AGATTAGAT yielded a switch fluorescence ratio of 0.993 ± 0.015.
AGATTAGGGA was tested, and the switch fluorescence ratio was 0.975 ± 0.017.
AGATTAGGGT was tested, and the switch fluorescence ratio was 1.01 ± 0.017.
AGATTATTTT showed a switch fluorescence ratio of 1.01 ± 0.032.
Work on AGATTCAATA yielded a switch fluorescence ratio of 0.991 ± 0.016.
For AGATTCATGC, the switch fluorescence ratio was 1.01 ± 0.019.
In the case of AGATTCATTT, the switch fluorescence ratio is reported as 0.984 ± 0.021.
Sequence AGATTCGGGA has a switch fluorescence ratio of 0.967 ± 0.038.
With AGATTGAATG the switch fluorescence ratio was 0.97975 ± 0.00032.
Sequence AGATTGCCGT has a switch fluorescence ratio of 1.01 ± 0.068.
AGATTGCTTG showed a switch fluorescence ratio of 0.977 ± 0.03.
Sequence AGATTGGGGG has a switch fluorescence ratio of 0.969 ± 0.034.
In the case of AGATTGGGGT, the switch fluorescence ratio is reported as 1.01 ± 0.017.
For AGATTTAGTA, the switch fluorescence ratio was 0.982 ± 0.06.
Work on AGATTTCACT yielded a switch fluorescence ratio of 1.01 ± 0.016.
AGATTTGGCT was tested, and the switch fluorescence ratio was 0.9952 ± 0.0065.
Work on AGATTTTGCA yielded a switch fluorescence ratio of 0.989 ± 0.027.
AGATTTTTGG was tested, and the switch fluorescence ratio was 1.003 ± 0.0026.
In the case of AGCAAAAGAA, the switch fluorescence ratio is reported as 1.12 ± 0.15.
For AGCAACCCCT, the switch fluorescence ratio was 1.81 ± 0.022.
For AGCAAGAGGC, the switch fluorescence ratio was 1.26 ± 0.34.
AGCAAGGATT gave a switch fluorescence ratio of 1.1 ± 0.1.
Work on AGCAAGTATC yielded a switch fluorescence ratio of 1.24 ± 0.033.
AGCAAGTTGT showed a switch fluorescence ratio of 1.03 ± 0.011.
AGCAATGGGG gave a switch fluorescence ratio of 1.58 ± 0.051.
Work on AGCACGAGGG yielded a switch fluorescence ratio of 0.9816 ± 0.0093.
For AGCACGGGGG, the switch fluorescence ratio was 1.19 ± 0.28.

Source: the supplement of paper PMC10126150
